Data from patent publication US20210261685A1 (Alector, published 2021).

Experiments:
[1] = biological target: T1, Recombinant human MerTK human Fc Chimera protein (R&D systems, Cat #391-MR-100) (human, UniProt Q12866 26-499, limits assumed); test: competition ELISA, His-ProS on captured MerTK-Fc
T1 construct: Bought; also called recombinant human MerTK protein; MerTK-Fc
T1 sequence: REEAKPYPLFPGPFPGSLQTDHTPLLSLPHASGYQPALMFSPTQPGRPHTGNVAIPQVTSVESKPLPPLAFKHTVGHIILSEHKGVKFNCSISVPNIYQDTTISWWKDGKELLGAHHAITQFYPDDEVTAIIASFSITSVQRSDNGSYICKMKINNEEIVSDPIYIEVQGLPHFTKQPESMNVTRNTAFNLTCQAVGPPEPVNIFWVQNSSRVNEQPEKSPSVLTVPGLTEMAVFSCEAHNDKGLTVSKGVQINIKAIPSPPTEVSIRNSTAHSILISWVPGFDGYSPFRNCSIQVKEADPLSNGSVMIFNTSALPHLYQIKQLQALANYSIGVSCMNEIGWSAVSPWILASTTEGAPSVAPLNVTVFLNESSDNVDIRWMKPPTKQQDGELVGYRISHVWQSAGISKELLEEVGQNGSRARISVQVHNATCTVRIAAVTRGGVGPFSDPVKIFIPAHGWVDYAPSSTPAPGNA
In short: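 MerTK-Fc (2 μg/ml) captured on plate-bound anti-human IgG was exposed to anti-MerTK antibodies (66.6 nM-4 pM final) together with His-Gas6 at 3 μg/ml or His-ProS at 20 μg/ml for 1 h. Bound ligand was detected with HRP-anti-His and TMB. IC50 (nM) was derived from OD450 dose-response curves.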

[2] = biological target: T2, human MerTK endogenously expressed on cells (SK-MEL-5 cells; human macrophages) (human, UniProt Q12866 21-999); test: flow cytometry on SK-MEL-5 cells, Prism fit
T2 construct: also called MerTK on SK-MEL-5
T2 sequence: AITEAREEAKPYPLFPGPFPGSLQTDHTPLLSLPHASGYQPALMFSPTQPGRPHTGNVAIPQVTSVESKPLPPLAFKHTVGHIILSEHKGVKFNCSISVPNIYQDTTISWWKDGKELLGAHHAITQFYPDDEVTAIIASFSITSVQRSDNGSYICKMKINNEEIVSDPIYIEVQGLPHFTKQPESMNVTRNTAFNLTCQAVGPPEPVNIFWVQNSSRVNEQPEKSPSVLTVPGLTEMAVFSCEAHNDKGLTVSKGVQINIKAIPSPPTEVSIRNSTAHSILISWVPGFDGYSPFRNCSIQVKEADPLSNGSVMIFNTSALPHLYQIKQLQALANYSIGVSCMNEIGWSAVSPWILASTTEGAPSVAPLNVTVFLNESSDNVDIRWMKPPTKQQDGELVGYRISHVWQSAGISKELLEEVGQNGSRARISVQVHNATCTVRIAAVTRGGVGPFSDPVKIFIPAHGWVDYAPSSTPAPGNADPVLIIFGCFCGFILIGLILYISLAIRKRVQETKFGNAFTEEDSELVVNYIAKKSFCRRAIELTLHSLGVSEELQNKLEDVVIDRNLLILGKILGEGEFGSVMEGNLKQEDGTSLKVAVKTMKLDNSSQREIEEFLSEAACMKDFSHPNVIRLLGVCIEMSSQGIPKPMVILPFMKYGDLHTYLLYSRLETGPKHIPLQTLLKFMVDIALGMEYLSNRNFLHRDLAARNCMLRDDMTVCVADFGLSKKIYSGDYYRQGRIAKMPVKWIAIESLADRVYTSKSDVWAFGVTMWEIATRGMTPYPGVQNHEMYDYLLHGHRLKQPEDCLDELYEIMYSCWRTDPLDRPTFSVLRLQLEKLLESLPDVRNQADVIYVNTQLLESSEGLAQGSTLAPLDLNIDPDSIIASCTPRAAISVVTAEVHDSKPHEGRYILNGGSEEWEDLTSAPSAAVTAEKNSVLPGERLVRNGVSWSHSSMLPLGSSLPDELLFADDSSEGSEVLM
Procedure: To determine whether recombinant anti-human MerTK antibodies of the present disclosure bind to human MerTK endogenously expressed on SK-MEL-5 cells and to CHO cells overexpressing mouse MerTK (CHO-muMerTK OE cells), the following experiments were performed. SK-MEL-5 cells and CHO-muMerTK OE cells were plated at 40,000 cells/well. Anti-MerTK antibodies were titrated to a final concentration range of between 66.6 nM to 4 pM and then added to the cells. After 30 min on ice, cells were washed and then stained with APC-conjugated mouse anti-human Kappa antibody (Southern Biotech Cat #9230-11, Birmingham, Ala.) and a viability die (Life Technologies) in the presence of Fc block solution on ice for 30 minutes, and then washed twice with cold FACS buffer (2% FBS in PBS). Cells were fixed with 4% paraformaldehyde in PBS. Stained cells were acquired on a BD FACS Canto II cytometer and the mean fluorescence intensity (MFI) was calculated with FlowJo software and K value was calculated with Prism software. […] A lower Kd value reflects higher binding of antibody to cells.

- IC50 [1]: 3.8 nM
- Kd [2]: 0.079 nM
B1: MTK-08 (antibody, human IgG1, V domains shown)
VH: QIQLVQSGPELKKPGETVKISCKASGYTFTNYGMNWVKQAPGKGLKWMGWINTYTGEPTYADDFKGRFAFSLETSASTAYLQINNLKNEDTATYFCAREVRYWYFDVWGAGTTVTVSS
VL: QIVLSQSPAILSASPGEKVTMTCRATSSVSYMHWFQQKPGSSPKPWIYATSNLASGVPARFSGSGSGTSYSLTISRVEAEDAAAYYCQHWSGNPRTFGGGTKLEIK
